In patent publication US20130281314A1 (Genentech, published 2013):

Target: T1, Wildtype ubiquitin (human, UniProt P0CG48 1-76)
T1 construct: also called wt; not shown: N-terminal 6xHis tag of the pET derivative vector
Assay: biolayer interferometry, USP14catC114A on sensors, steady state fit

Kd: 100 µM
B1: USP14catC114A (enzyme, UniProt P54578 91-494, looked up)
chain: DMTEEQLASAMELPCGLTNLGNTAYMNATVQCIRSVPELKDALKRYAGALRASGEMASAQYITAALRDLFDSMDKTSSSIPPIILLQFLHMAFPQFAEKGEQGQYLQQDANECWIQMMRVLQQKLEAIEDDSVKETDSSSASAATPSKKKSLIDQFFGVEFETTMKCTESEEEEVTKGKENQLQLSCFINQEVKYLFTGLKLRLQEEITKQSPTLQRNALYIKSSKISRLPAYLTIQMVRFFYKEKESVNAKVLKDVKFPLMLDMYELCTPELQEKMVSFRSKFKDLEDKKVNQQPNTSDKKSSPQKEVKYEPFSFADDIGSNNCGYYDLQAVLTHQGRSSSSGHYVSWVKRKQDEWIKFDDDKVSIVTPEDILRLSGGGDWHIAYVLLYGPRRVEIMEEESEQ
modifications: monobiotinylated at the C-terminal Avi tag
notes: range 91-494; N-terminal His tag removed with TEV protease; also called catalytic domain of USP14 (residues D91-Q494) with a C114A mutation; not shown: C-terminal Avi tag
